In US6897294 (Genentech, dated 2005):

B1: vascular endothelial growth factor VEGF165 (ligand, UniProt P15692-4 27-191, looked up)
chain: APMAEGGGQNHHEVVKFMDVYQRSYCHPIETLVDIFQEYPDEIEYIFKPSCVPLMRCGGCCNDEGLECVPTEESNITMQIMRIKPHQGQHIGEMSFLQHNKCECRPKKDRARQENPCGPCSERRKHLFVQDPQTCKCSCKNTDSRCKARQLELNERTCRCDKPRR
notes: mature; also called VEGF ligand
B2: intact FLT4 receptor (receptor)
chain: YSMTPPTLNITEESHVIDTGDSLSISCRGQHPLEWAWPGAQEAPATGDKDSEDTGVVRDCEGTDARPYCKVLLLHEVHANDTGSYVCYYKYIKARIEGTTAASSYVFVRDFEQPFINKPDTLLVNRKDAMWVPCLVSIPGLNVTLRSQSSVLWPDGQEVVWDDRRGMLVSTPLLHDALYLQCETTWGDQDFLSNPFLVHITGNELYDIQLLPRKSLELLVGEKLVLNCTVWAEFNSGVTFDWDYPGKQAERGKWVPERRSQQTHTELSSILTIHNVSQHDLGSYVCKANNGIQRFRESTEVIVHENPFISVEWLKGPILEATAGDELVKLPVKLAAYPPPEFQWYKDGKALSGRHSPHALVLKEVTEASTGTYTLALWNSAAGLRRNISLELVVNVPPQIHEKEASSPSIYSRHSRQALTCTAYGVPLPLSIQWHWRPWTPCKMFAQRSLRRRQQQDLMPQCRDWRAVTTQDAVNPIISLDTWTEFVQGKNKTVSKLVIQNANVSAMYKCVVSNKVGQDERLIYFYVTTIPDGFTIESKPSEELLEGQPVLLSCQADSYKYEHLRWYRLNLSTLHDAHGNPLLLDCKNVHLFATPLAASLEEVAPGARHATLSLSIPRVAPEHEGHYVCEVQDRRSHDKHCHKKYLSVQALEAPRLTQNLTDLLVNVSDSLEMQCLVAGAHAPSIVWYKDERLLEEKSGVDLADSNQKLSIQRVREEDAGRYLCSVCNAKGCVNSSASVAVEGSEDKGSMEIVILVGTGVIAVFFWVLLLLIFCNMRRPANADIKTGYLSIIMDPGEVPLEEQCEYLSYDASQWEFPRERLHLGRVLGYGAFGFVVEASAFGIHKGSSCDTVAVKMLKEGASASEHRALMSELKILIHIGNHLNVVNLLGACTKPQGPLMVIVEFCKYGNLSNFLRAKRDAFSPCAEKSPEQRGRFRAMVELARLDRRRPGSSDRVLFARFSKSEGGARRASPDQEAEDLWLSPLTMEDLVCYSFQVARGMEFLASRKCIHRDLAARNILLSESDVVKICDFGLARDIYKDPDYVRKGSARLPLKWMAPESIFDKVYTTQSDVMSFGVLLWEIFSLGASPYPGVQINEEFCQRLRDGTRMRAPELATPAIRRIMLNCWSGDPKARPAFSEVLEILGDLLQGRGLQEEEEVCMAPRSSQSSEEGSFSQVSTMALHIIQADAEDSPPSLQRHSLAARYYNWVSFPGCLARGAETRGSSRMKTFEEFPMTPTTYKGSVDNQTDSGMVLASEEFEQIESRHRQESGFSCKGPGQNVAVTRAHPDSQGRRRRPERGARGGQVFYNSEYGELSEPSEEDHCSPSARVTFFTDNSY
notes: Transiently expressed on 293 cells; also called entire human FLT4 receptor
B3: flt-1(1, 2, 3)/FLT4 chimeric receptor (receptor)
chain: YSMTPPTLSLKGTQHIMQAGQTLHLQCRGEAAHKWSLPEMVSKESERLSITKSACGRNGKQFCSTLTLNTAQANHTGFYSCKYLAVPTSKKKETESAIYIFISDTGRPFVEMYSEIPEIIHMTEGRELVIPCRVTSPNITVTLKKFPLDTLIPDGKRIIWDSRKGFIISNATYKEIGLLTCEATVNGHLYKTNYLTHRQTNTIIDVQISTPRPVKLLRGHTLVLNCTATTPLNTRVQMTWSYPDEKNKRASVRRRIDQSNSHANIFYSVLTIDKMQNKDKGLYTCRVRSGPSFKSVNTSVRVHENPFISVEWLKGPILEATAGDELVKLPVKLAAYPPPEFQWYKDGKALSGRHSPHALVLKEVTEASTGTYTLALWNSAAGLRRNISLELVVNVPPQIHEKEASSPSIYSRHSRQALTCTAYGVPLPLSIQWHWRPWTPCKMFAQRSLRRRQQQDLMPQCRDWRAVTTQDAVNPIESLDTWTEFVEGKNKTVSKLVIQNANVSAMYKCVVSNKVGQDERLIYFYVTTIPDGFTIESKPSEELLEGQPVLLSCQADSYKYEHLRWYRLNLSTLHDAHGNPLLLDCKNVHLFATPLAASLEEVAPGARHATLSLSIPRVAPEHEGHYVCEVQDRRSHDKHCHKKYLSVQALEAPRLTQNLTDLLVNVSDSLEMQCLVAGAHAPSIVWYKDERLLEEKSGVDLADSNQKLSIQRVREEDAGRYLCSVCNAKGCVNSSASVAVEGSEDKGSMEIVILVGTGVIAVFFWVLLLLIFCNMRRPAHADIKTGYLSIIMDPGEVPLEEQCEYLSYDASQWEFPRERLHLGRVLGYGAFGKVVEASAFGIHKGSSCDTVAVKMLKEGATASEHRALMSELKILIHIGNHLNVVNLLGACTKPQGPLMVIVEFCKYGNLSNFLRAKRDAFSPCAEKSPEQRGRFRAMVELARLDRRRPGSSDRVLFARFSKTEGGARRASPDQEAEDLWLSPLTMEDLVCYSFQVARGMEFLASRKCIHRDLAARNILLSESDVVKICDFGLARDIYKDPDYVRKGSARLPLKWMAPESIFDKVYTTQSDVWSFGVLLWEIFSLGASPYPGVQINEEFCQRLRDGTRMRAPELATPAIRRIMLNCWSGDPKARPAFSELVEILGDLLQGRGLQEEEEVCMAPRSSQSSEEGSFSQVSTMALHIAQADAEDSPPSLQRHSLAARYYNWVSFPGCLARGAETRGSSRMKTFEEFPMTPTTYKGSVDNQTDSGMVLASEEFEQIESRHRQESGFSCKGPGQNVAVTRAHPDSQGRRRRPERGARGGQVFYNSEYGELSEPSEEDHCSPSARVTFFTDNSY
notes: Stably expressed in NIH 3T3 cells for thymidine incorporation; also called flt-1 domains 1-3/FLT4 chimeric receptor

Experiments:
[1] = target: T1, flt-1(2)/FLT4 chimeric receptor (human, UniProt P35916 25-1363); assay: saturation binding of 125I-VEGF to transiently transfected 293 cells, Scatchard analysis
T1 construct: Stably expressed in NIH 3T3 cells for thymidine incorporation; also called flt-1 domain 2/FLT4 chimeric receptor
Protocol: (§1) After preparation of these expression constructs, 293 cells were transfected with the constructs via DEAE-Dextran and transiently-expressing cells were analyzed for the ability to bind to the VEGF ligand. To detect binding of the VEGF ligand, a saturation binding assay was performed on transiently-expressing 293 cells expressing the intact FLT4 receptor, the flt-1 domain 2/FLT4 chimeric receptor, the flt-1 domains 1–3/FLT4 chimeric receptor, or the intact flt-1 receptor. […] The cell mixture was then layered over a 0.75 ml cushion of 30% sucrose, centrifuged for 10 minutes at maximum speed, and the pellet was recovered and counted in a gamma counter. […] The amount of counts added and the recovered counts bound were then subjected to scatchard analysis.

[2] = target: T2, flt(1,2): flt-1 Ig-like domains 1 and 2 only fused to the Fc of IgG (human, UniProt P01857-1 104-330 = IgG part, limits assumed); assay: 125I-VEGF165 binding to chimeric protein captured on anti-human Fc coated plates (FIG. 4)
T2 construct: domain: Fc of IgG; The true C-terminal limit may therefore be 225
T2 sequence (P01857 other isoform, or with tags, fused parts or gaps limits assumed): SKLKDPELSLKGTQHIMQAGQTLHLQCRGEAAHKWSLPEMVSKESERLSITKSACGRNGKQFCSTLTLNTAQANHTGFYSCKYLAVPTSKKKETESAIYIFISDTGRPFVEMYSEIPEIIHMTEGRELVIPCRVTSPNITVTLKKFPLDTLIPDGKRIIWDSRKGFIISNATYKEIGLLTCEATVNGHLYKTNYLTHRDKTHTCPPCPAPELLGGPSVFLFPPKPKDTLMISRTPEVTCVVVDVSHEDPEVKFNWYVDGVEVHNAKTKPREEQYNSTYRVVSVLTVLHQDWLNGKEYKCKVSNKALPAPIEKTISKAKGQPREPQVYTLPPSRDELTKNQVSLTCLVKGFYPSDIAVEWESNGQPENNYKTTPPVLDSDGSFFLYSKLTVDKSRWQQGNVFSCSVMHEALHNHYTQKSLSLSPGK
Protocol: (§2) Binding assays with the soluble chimeric VEGF receptors generated in Example 1 above were performed essentially as described by Park et al., *J. Biol. Chem.* 269:25646–25654 (1994). […] Plates were blocked for 1 hr with 10% fetal bovine serum in PBS (buffer B). After removal of the blocking buffer, 100 µl of a binding cocktail was added to each well. […] The specific activity of the iodinated VEGF was 5.69 ×10^7 cpm/microgram. Incubation in the coated wells proceeded for 4 hrs at room temperature, followed by 4 washes with buffer B. Binding was determined by counting individual wells in a gamma counter. Data was analyzed using a 4-parameter non-linear curve fitting program (Kalidagraph, Abelbeck Software).

[3] = target: T3, flt(2): flt-1 Ig-like domain 2 only fused to the Fc of IgG (human, UniProt P01857-1 104-330 = IgG part, limits assumed); assay: as above
T3 construct: domain: Fc of IgG
T3 sequence (P01857 other isoform, or with tags, fused parts or gaps limits assumed): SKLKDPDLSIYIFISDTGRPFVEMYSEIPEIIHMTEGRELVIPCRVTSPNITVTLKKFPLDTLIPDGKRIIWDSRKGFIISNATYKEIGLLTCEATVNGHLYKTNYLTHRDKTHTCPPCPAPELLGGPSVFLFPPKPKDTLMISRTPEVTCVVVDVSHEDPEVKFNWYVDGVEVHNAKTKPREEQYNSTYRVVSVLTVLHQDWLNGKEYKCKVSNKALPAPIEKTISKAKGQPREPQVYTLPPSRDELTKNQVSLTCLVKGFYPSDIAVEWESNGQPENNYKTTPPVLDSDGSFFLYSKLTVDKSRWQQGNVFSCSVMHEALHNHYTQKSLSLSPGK
Protocol: as §2

[4] = target: T4, flt-1 extracellular domain/IgG Fc chimera (flt-1/IgG) (human, UniProt P17948 27-758); assay: unlabeled VEGF titrated against 125I-VEGF165 binding to 1 ng immunoreactive flt-1/IgG on anti-Fc plates; 4-parameter fit (FIG. 5)
T4 construct: Secreted from CEN4 cells and used as conditioned medium quantified by Fc ELISA; also called intact flt-1/IgG chimeric VEGF receptor protein; native flt-1/IgG; not shown: Fc of human IgG1 (amino acids 216-443 of the Capon IgG gamma-1 heavy chain clone)
T4 sequence (P17948 other isoform, or with tags, fused parts or gaps mutant limits assumed): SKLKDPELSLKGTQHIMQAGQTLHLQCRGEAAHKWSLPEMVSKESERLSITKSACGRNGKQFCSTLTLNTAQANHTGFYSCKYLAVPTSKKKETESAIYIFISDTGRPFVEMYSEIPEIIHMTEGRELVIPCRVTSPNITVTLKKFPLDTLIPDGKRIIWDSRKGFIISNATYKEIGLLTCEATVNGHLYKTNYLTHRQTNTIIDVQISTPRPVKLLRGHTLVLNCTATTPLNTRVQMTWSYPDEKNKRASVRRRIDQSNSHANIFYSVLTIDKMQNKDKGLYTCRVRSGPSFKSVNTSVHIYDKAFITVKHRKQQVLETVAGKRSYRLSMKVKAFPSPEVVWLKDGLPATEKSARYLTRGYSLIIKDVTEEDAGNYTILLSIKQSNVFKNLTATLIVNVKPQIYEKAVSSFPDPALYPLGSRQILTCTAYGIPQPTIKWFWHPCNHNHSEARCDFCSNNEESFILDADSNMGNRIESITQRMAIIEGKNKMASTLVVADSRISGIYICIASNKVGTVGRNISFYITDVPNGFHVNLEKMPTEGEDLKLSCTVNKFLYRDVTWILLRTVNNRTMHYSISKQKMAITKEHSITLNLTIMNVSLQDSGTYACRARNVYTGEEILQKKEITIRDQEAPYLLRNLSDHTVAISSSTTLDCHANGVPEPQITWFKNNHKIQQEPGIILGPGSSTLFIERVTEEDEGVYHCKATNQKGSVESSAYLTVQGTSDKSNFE
Protocol: as §2
Binding assays were performed essentially as described above. […] This occurs at the point of inflection of the curve. […] Thus, the flt(1, 2, 3) deletion chimera behaves in a similar fashion to the intact flt-1/IgG chimeric protein with respect to binding to the VEGF ligand.

[5] = target: B1; assay: saturation binding of 125I-VEGF to transiently transfected 293 cells, background of non-transfected cells subtracted
Protocol: as §1

[6] = target: B1; assay: saturation binding of 125I-VEGF to transiently transfected 293 cells, Scatchard analysis
Protocol: as §1

Binder: B1
Kd [1]: ~0.0102 nM
binding result [2]: no binding
binding result [3]: no binding
IC50 [4]: 1.89 ng/mL

Binder: B2
binding result [5]: no binding

Binder: B3
Kd [6]: ~0.0104 nM
